Where two headings read alike, the source gives them in different places.

The target of one data set is T1, PfSir2A (UniProt Q8IE47).
T1 sequence: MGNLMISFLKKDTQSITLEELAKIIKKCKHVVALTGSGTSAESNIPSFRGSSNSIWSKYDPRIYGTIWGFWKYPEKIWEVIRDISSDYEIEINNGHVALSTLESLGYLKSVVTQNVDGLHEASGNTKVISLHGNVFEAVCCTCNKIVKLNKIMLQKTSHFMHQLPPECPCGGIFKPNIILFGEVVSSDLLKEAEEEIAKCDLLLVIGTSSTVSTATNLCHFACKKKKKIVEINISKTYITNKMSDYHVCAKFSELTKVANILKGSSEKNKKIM
Kind of data set: EMSA. For orientation: Mobility shift assays separate free from complexed probe on a gel.

Data set [1] has as its target recombinant human 601-positioned nucleosome with histone H3 acetylated at lysine 9 (H3K9Ac dNuc) (human) (UniProt P68431). Nature of the data set: native gel or EMSA.

In the case of “601 nucleosome assembly sequence DNA, 147 bp”, in the data set with PfSir2A, the Kd worked out at 4000 nM. In turn, “H3K9Ac dNuc (human 601-positioned nucleosome)” had a Kd with PfSir2A (histone H3 K9 acetylated, no DNA modification stated) of 1400 nM.

B1: Plasmodium falciparum silent information regulator 2A (PfSir2A) (enzyme)
chain: MGNLMISFLKKDTQSITLEELAKIIKKCKHVVALTGSGTSAESNIPSFRGSSNSIWSKYDPRIYGTIWGFWKYPEKIWEVIRDISSDYEIEINNGHVALSTLESLGYLKSVVTQNVDGLHEASGNTKVISLHGNVFEAVCCTCNKIVKLNKIMLQKTSHFMHQLPPECPCGGIFKPNIILFGEVVSSDLLKEAEEEIAKCDLLLVIGTSSTVSTATNLCHFACKKKKKIVEINISKTYITNKMSDYHVCAKFSELTKVANILKGSSEKNKKIM
For B1, the Kd in data set [1] was 1400 nM.

By Kd is commonly meant a measure of binding affinity in units of concentration.

Values taken from publication doi:10.1101/2024.09.25.614941.
